These results are taken from patent US20130164214A1.

In this assay the target is HLA-DR (human). The assay can be described thus: cell-based or functional assay.

B1: hL243γ4P (IMMU-114), humanized IgG4 anti-HLA-DR antibody (antibody, from a related filing, V domains shown)
VH: QVQLQQSGSELKKPGASVKVSCKASGFTFTNYGMNWVKQAPGQGLKWMGWINTYTREPTYADDFKGRFAFSLDTSVSTAYLQISSLKADDTAVYFCARDITAVVPTGFDYWGQGSLVTVSS
VL: DIQLTQSPSSLSASVGDRVTITCRASENIYSNLAWYRQKPGKAPKLLVFAASNLADGVPSRFSGSGSGTDYTFTISSLQPEDIATYYCQHFWTTPWAFGGGTKLQIKR
In turn, B1 showed a reduction of live mDC1 in human PBMCs after 3 days with antibody, flow cytometry of 59.2%; a reduction of live mDC2 in human PBMCs after 3 days with antibody, flow cytometry of 85%; a reduction of pDCs in human PBMCs, flow cytometry of 50%.
